Test results from the DeepSol protein solubility set.

assay: soluble on expression in E. coli; label from the status in PepcDB or PDB records

Sequence	soluble on expression in E. coli
MSLKIRDPYIDERTNMVVIRESPDVVRLAERLVELQDRNDSEVVLEVEVLEVSSTKLTQLGVQYPNSFTLTPLSATGASSLTLSDFKGLNSDRIGVSTPNVVLNLRRELGDTDLLANPKIRAKNHEKAKILIGDKLPVITTTSTSTGFVSESVQYIDVGLKLEVEPSISPDDEVSMKINLEVSSLTNQITTRSGTVAYQIGTRTANTVLKLHDGETQLLAGLIKTQQTSSAARIPGLGDIPLLGRLFSSQTDNGVRNEIVLSITPRVVKPSHRPDTNEGHHHHHH	soluble
MSLKISDGNWLIQPGLNLIHPLQVFEVEQQDNEMVVYAAPRDVRERTWQLDTPLFTLRFFSPQEGIVGVRIEHFQGALNNGPHYPLNILQDVKVTIENTERYAEFKSGNLSARVSKGEFWSLDFLRNGERITGSQVKNNGYVQDTNNQRNYMFERLDLGVGETVYGLGERFTALVRNGQTVETWNRDGGTSTEQAYKNIPFYMTNRGYGVLVNHPQCVSFEVGSEKVSKVQFSVESEYLEYFVIDGPTPKAVLDRYTRFTGRPALPPAWSFGLWLTTSFTTNYDEATVNSFIDGMAERNLPLHVFHFDCFWMKAFQWCDFEWDPLTFPDPEGMIRRLKAKGLKICVWINPYIGQKSPVFKELQEKGYLLKRPDGSLWQWDKWQPGLAIYDFTNPDACKWYADKLKGLVAMGVDCFKTDFGERIPTDVQWFDGSDPQKMHNHYAYIYNELVWNVLKDTVGEEEAVLFARSASVGAQKFPVHWGGDCYANYESMAESLRGGLSIGLSGFGFWSHDIGGFENTAPAHVYKRWCAFGLLSSHSRLHGSKSYRVPWAYDDESCDVVRFFTQLKCRMMPYLYREAARANARGTPMMRAMMMEFPDDPACDYLDRQYMLGDNVMVAPVFTEAGDVQFYLPEGRWTHLWHNDELDGSRWHKQQHGFLSLPVYVRDNTLLALGNNDQRPNYVWHEGTAFHLFNLQDGHEAVCEVPAADGSVIFTLKAARTGNTITVTGAGEAKNWTLCLRNVVKVNGLQDGSQAESEQGLVVKPQGNALTITLEGGSHHHHHH	soluble
MSLKITKIETTLFEYKLDRSMGDANSPMGRKKGSGCVLELITDEGISGISIGGQNALPQINSIFDGILLNNDPKAIFSIWKRMVEKYFKGGHDGIANDAISAIDVALWDLKAKINEEPLWKTLGGNNNKVNVYASDIALPINDDDLFNWYSKMSDKFGFKGGKLKVGLDQESDLKRLELMHNALSKNCDDPILYVDSNEYWSPKQTIRNVSEMEERFTLGWIEEPARRWDFLGLKKVSDSLQTPVCAGENLDTLGDFLPYFHHRSADVIQVSHGMTGISGALQIADAAYALELPVTLGGSSGIIHAHIANAIPNCITVEVPHPEPETKVFTSDVTIKDGYAFVGNKPGMGIEVNYEELAKHKVEKVSQKAGPSPYGRRPGAGLYEIPPTKEEISEGQSKEGHHHHHH	soluble
MSLKIVVTKFGGSSLADSNQFKKVKGIIDSDANRKYIIPSAPGKRTNKDYKITDLLYLCNAHVKNGIPFDDVFKLISQRYTEIVSELNIDMDIAYYLEKVKKNIENGASSDYAASRGEYLNGVILAKYLNAEFIDAAEVIFFDKSGCFDEKKSYEKIKEKVLSCNKAVIPGFYGSSFNGDVKTFSRGGSDVTGSIISAGVNADLYENWTDVSGFLMADPRIVENPKTISKISYKELRELSYMGATVLHEEAIFPVKDSGIPINIKNTNKPSDPGTLILSDTHKEINLGTITGIAGKKNFTVIAIEKALLNSEVGFCRKILSILEMYGVSFEHMPSGVDSVSLVIEDCKLDGKCDKIIEEIKKQCNPDSIEIHPNMALVATVGTGMAKTKGIANKIFTALSKENVNIRMIDQGSSEINVIVGVETVDFEKAVKSIYNAFNEGHHHHHH	soluble
MSLKIVYITENAEKLAKDVKSVFDYYFYDNEVFNIKDFEITGNETGFVFIMASGIVLRKYIPEIQNDKLKDPFVILMDESKKHVVPLLSNHIGGGNYFSDLIGNFLNLDVVKTTATDVNGKIGIDELSKIYFLENPLKKDILSVNKKVLSEKPDLIIPKAWKTSKKLLNSYNVSFHDESHVLVDDIVLKPKTVSLGLGSRRNIEKSKVYWAVKKALYLRDIPTWRIDTFSTVSVKKDEYGILKTAERFDKDLFIFEIDELNEIYSKYPLIRSEFVFKTIGTYGVSEPCAILGISKITGETDFEMKKLVLNKMKKDGVSVSIAVEGHHHHHH	not soluble
MSLKKAKLIFKDNTPFSLDFDDFYFNSKDGLNESKFVYTHSFEWKNQENFIIAESGFGIGLNFFLTLKRLLETTPSKRPKKLFYISVEAFYIEKEQLREIYQKLEFYEEFKELLEQFLKFYPKAKEGIYRFYFEDCFLDLVFEDIAVLKELDFKADVWYLDGFSPNKNLQMFDENLIFEVARLSKKNTQICTFSSASFLQKNLKKYGFRVEKTKGFRKREMIKAYLENELEFKDKEAYFSRTEGHHHHHH	soluble
MSLKKILIIVPDGGMLFESAGIADILMQANRLHPEGAREICYQVKLATTQPHQVIHGQSGLNLLADHRLHEIDPREPLDTIMITGRGQNPQEGMAVVDWLRLAAPHARRIVSICGGAMLLAQTGLLDGRRATTHWKLLETMQAEFPQIRVEGGPLYIQDEHIWTSGGVSSGFDLTLALVEEDYGEGHHHHHH	not soluble
MSLKKKVVIVGGGFTGLNTARILSNRKDVEVTLIDRKNYHLFQPLLYQVAMAALGEGDIATPLRNMLAGYDNVTVFKGNVCNVDLEQKKVKTDFGDIEYDYLVLACGAQHHYFGKNDWEEHAPGLKNLAQASEIRRRVMEAYEAAERTNDMKERKKQLTFVIVGGGPTGVELAGSIGEMSRYTLSKFYRHIDPKLTRIFIVEAAERILGTFSPELSSKATRELEKLGVQVWTSSMVSDVDADGVQIGRERIEAATVLWAAGVKASEIGQNMGVQTDRSGRIMVEADLSLPGHPEVFVGGDQACYTLENGSTLPGMAPVAMQEGKAIGRMILDDLKGKPRKPFKYRDKGQMATIGRNRAIVEIGNLKFDGEGHHHHHH	soluble
MSLKLIASDMDGTLLDAKMSITNDNASAIREAERLGIEFMVATGRAYTEAKPALEEAGIDCAMITLNGAQVFDKDGHSLFTAGIEKETVTEVLTILSQHNVYYEISTNKGIFSEHQEKRIENFAAHIAESMPHLTYKVAIAMASAHLSLLHITYVDRLDDILKDDSIEVLKIIGFSMDGPKVLGPAGMEVEELDDLVVTSSALNNIEINHRLAQKGIAVARVAKERGIPAEQVMTIGDNLNDVSMIQWAGVSFAMGNAELELKEYAKYETATNLENGVGEAILRAIREDEGHHHHHH	soluble
MSLKLIATDMDGTLLRSNGEFPNEFPLILDSLLNKNIMFSVASGRQYFTLKDNMAGFEDKITFIAENGAFIVKDGKELFAKTLDRDMLSKVVDDAKKVPDCKLVLCGKKSAYVLDKSSAFIEEVEKYYHKSAVVNSLDEIDDEFFKIAICDYKGSANNSNVLLSPKWGKLFQLTVSGDIWLDIGRNDVNKGTAIKFLQDKFNINENETMAFGDYYNDVSMLQSVYHSYVMENAPDGVKKHGRFIAKSNDESGVIQVIKNKVLELGAEGHHHHHH	soluble
MSLKLITCDLDGTLLNSSMEISDANVQAIKRAQENGIEFMVASGRAPHESQPMLKEYWIDCSFINLNGGLVFDTAGNLIVKNPLKLETAKKICRLLKKEGFYFELVTSNHVYSEDLSQRITNVAHLMVELNPMLTFKEAVLVSASKPAIVSIQQVPSYEDLMDEPGTEVMKILVFDSRGQYAFTDVIKKIEEIDKLSITSSAADNIEINAASAQKGQSLLDYAAAKGIKREEIAAIGDNLNDESMIQAAGTGVAMGNAVPQIKTIASFVTKSNNEDGVAWAIDKIIADNQKEGHHHHHH	soluble
MSLKLVAIAGSIGEQSYNRMLLQYIAKHFENLVDIELLNIDDVPVFNEDEDLSDNIKIQKIYQKIYGADGVILATPEHNHTVTAAIKNVIEWLSFKLHPFDGKPVWIVGASYFNQGSSRAQLHLKQILEAPGVNAIVMPGNEFLLRNAKEAFDAEGQLKDAGTVQFLEMVIQKFIKFVKVIDMLDAPDPKSYQDEDLESKGKVNTTIEGVDMHDEHWVEKAAQKVHAVDGSTYVKLDRGILTVDQLNYFLKTMPVELTYADDNNQFIYYNKNQPADKMLAPRNPGQAGDPLADVHPGRAVDRVKQVIHALRTGETDLVSMPVPGNGPDRHVMHYYKAMRDENGRYRGVNEWVTDIMPIIKYYLASTGEGHHHHHH	soluble
MSLKNPRIVVVDDSPFSVSILTDMLQRNGFEVVGSASNLNEVKKAVTELNPNLVTMDMVLADTDGLECTKIIHQINPEIRVIAISSMMDDEILAKAKKNNISAYIQKPIDEEELVLAINRISSDDDLYSELKDRYFDIFKQAFSYAFNKFIKEVPNFVEKDEHTVEHVEKGISIVMGIIGKYCGRLILNISYETADKFVESVLNRPAKDLQEILNVVAEFANIVGGNACSMINRENKIFGMRIAPPTTIYGDSINISRNSLDTMNFFTVNVTAGEISVNIGFNKGAVEWMSNEGHHHHHH	soluble
MSLKPSTRSNVQPFRVMQMLDRVHRRRREGKDTLMFCAGQPSTGAPEAVIEEAEIALRSGPLGYTEVIGDREFRERIADWHSATYDVDTNPDNVIVTTGSSGGFVASFIATLDHGDYVAMPTPGYPAYRNILESLGAKVLNLRCTAETRFQPTAQMLEELPHKPKAVIVTSPGNPTGTIIDPEELERIAKWCDDNDAVLISDEDYHGMSFGRPLATAHQFSKNAIVVGTLSKYFSMTGWRVGWIIVPDELVTPIENLQASLSLCAPAIGQAAGRAAFTLEAGAELDAHVEAYREAREVFVDKLPEIGLGTFADPDGGLYLWVDVSAYTDDSEEWALRLLDEAGVAVAPGVDFDPEEGHKWIRLSLCASKEDTIEGVRKIGEFIKKEGHHHHHH	soluble
MSLKPTVWHHLRLCPHGHPDETIDDAAIAVDETGTIVWLGAVSALPHGYAHWRREDLHGAWVTPGLVDCHTHLVYGGTRADEFAQRLAGVSYEEIARQGGGIVSTVRATRAADETTLFVQAAARLQPLLAEGVTAIEIKSGYGLDLASERKMLRVARQLGERFPVTVYTTFLGAHALPPEYAGRADAYIDEVCDRMLPALADEGLVDAVDVFCERIGFSLAQTERVFEAATRRGLPVKLHAEQLSNAGGTALAARYRALSADHLEFLDEAGIEAMKAAGTVAVLLPGAYYFIRETQLPPIELLRKHGVPIALATDHNPGTSPLESLLLTLNMGCTLFRMTVPEVLQGVTCHAAAALGRADRHGALEVGRQADFAAWSVGSLAELAYWIGRPLCEQVVRGGTTVFRRMNGEGHHHHHH	soluble
MSLKQILNHARIVLADRVIDNGALEINDGRIAAIHEHALPDGEDLAGALLLPGLVEIHTDNLEKHLMPRNGVLWPILPAVITHDAQCVAAGITTVLDALAVGDLEGESVRLDTLHSSFDAINQGMREGALRADHFFHLRCELAYPGLLDELEALIAHPAVKLVSVMDHTPGQRQYRDLEQYKKYYGKKKVGWNEDTFLAAVAERKTKQAQYAGRHKQAVVELAQARGIALASHDDTDEAHIEEALRDGVAISEFPTTREAAAAAKRHGLATVMGAPNVVRGGSHSGNVAALELARHDLLDILSSDYVPASLLHGAWLLHAQAGWSLPRAVAAVSLNPAHSVGLADRGDIAVGQRADLVAMIVHGDVPLVRQVWNSGRRVFEGHHHHHH	soluble
MSLKQYKAYLIDLDGTMYMGTDEIDGAKQFIDYLNVKGIPHLYVTNNSTKTPEQVTEKLREMHIDAKPEEVVTSALATADYISEQSPGASVYMLGGSGLNTALTEAGLVIKNDEHVDYVVIGLDEQVTYEKLAIATLGVRNGATFISTNPDVSIPKERGLLPGNGAITSVVSVSTGVSPQFIGKPEPIIMVKALEILGLDKSEVAMVGDLYDTDIMSGINVGMDTIHVQTGVSTLEDVQNKNVPPTYSFKDLNEAIAELEKEGHHHHHH	soluble
